Reference: patent US20200316166A1, “Drug and Method for Treating Liver Diseases Related to Hepatitis B Viruses in Full-Dose Condition” (Shanghai Hep Pharmaceutical Co., Ltd., priority 2017, published 2020)

Legend:
[1] = molecular target: T1, NTCP (Homo sapiens, UniProt Q14973); experiment: Binding of FITC-labeled polypeptide to NTCP-293 cells; conditions: FITC label; for binding to NTCP-293 cells: 293 cells transfected with NTCP; for binding to 293 cells not transfected with NTCP (BLANK-293): control cells
T1 construct: expressed in transfected cells; host or cells: 293 (HEK293) cells
T1 sequence (Q14973 1-349): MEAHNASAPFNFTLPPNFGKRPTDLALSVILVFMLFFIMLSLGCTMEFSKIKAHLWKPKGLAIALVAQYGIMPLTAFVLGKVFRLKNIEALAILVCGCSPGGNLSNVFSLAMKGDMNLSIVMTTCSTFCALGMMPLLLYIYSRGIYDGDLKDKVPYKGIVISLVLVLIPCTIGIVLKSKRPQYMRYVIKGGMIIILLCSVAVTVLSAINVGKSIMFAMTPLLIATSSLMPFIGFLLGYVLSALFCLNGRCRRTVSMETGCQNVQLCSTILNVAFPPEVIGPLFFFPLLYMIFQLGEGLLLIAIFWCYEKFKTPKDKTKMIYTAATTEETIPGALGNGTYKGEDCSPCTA
Source text: NTCP-293 cell line was formed by transfecting non-hepatocyte-derived 293 cells with NTCP.

[2] = molecular target: sodium taurocholate cotransporting polypeptide (NTCP) expressed on transfected 293 cells (NTCP-293) (human) (UniProt Q14973); experiment: cell-based or functional assay
[3] = listed as hepalatide labeled with FIFC

Chain of hepalatide (P31868 13-59): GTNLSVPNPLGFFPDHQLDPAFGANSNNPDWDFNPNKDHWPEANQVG

Substance: FITC-hepalatide: hepalatide (Cmyr-47) fluorescently labeled by FITC at amino acid K at position 37
- binding to NTCP-293 cells [1]: bound to NTCP-293 cells
- binding to NTCP-293 cells [1, 3]: bind to NTCP expressing HEK293 cells
- binding to 293 cells not transfected with NTCP (BLANK-293) [1]: did not bind to 293 cells
- binding to 293 cells not transfected with NTCP (BLANK-293) [1, 3]: do not bind to control HEK293 cells

Substance: hepalatide (peptide)
- IC50 of inhibition of NTCP-293 uptake of 3H-labeled bile acid (3H-TA) [2]: 0.839 µg/mL
